The text below walks through data of publication PMC10471174.

Usually stoichiometry N stands for a count of units in the complex or per binding partner.

The target in this experiment is T1, purified human SAP30 protein (GST removed) (human), O75446.
T1 chain: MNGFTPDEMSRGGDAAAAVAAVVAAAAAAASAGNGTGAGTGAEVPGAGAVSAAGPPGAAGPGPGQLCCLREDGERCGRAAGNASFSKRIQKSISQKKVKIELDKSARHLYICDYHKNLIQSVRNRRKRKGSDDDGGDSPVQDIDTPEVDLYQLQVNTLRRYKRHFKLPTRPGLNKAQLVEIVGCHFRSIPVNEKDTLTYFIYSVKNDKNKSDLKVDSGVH
Description: SDS-PAGE under non-reducing conditions; purified SAP30 (GST removed) treated with or without β-mercaptoethanol and boiling; Coomassie staining and immunoblot. To be noted: remark: other sources report otherwise. For orientation: A western blot detects proteins with antibodies after separation by electrophoresis.

B1: purified human SAP30 protein (GST removed), O75446 1-220 (natural protein)
chain: T1 chain
With B1, the stoichiometry N was found to be 2.
